We go through two substances from article PMC3124622.

What is called kcat is the maximal rate divided by the concentration of active sites.

This data set relates to Nc1nc2nc[nH]c2c(=O)[nH]1. Briefly: purified protein, by the assay type. The conditions noted are these: guanine as substrate, 20 μM tRNA, 37 °C, pH 7.3.

Consider “E. coli TGT V217G (Escherichia coli K-12; V217G)”, for which, for the setting “other: V217G”, the Km is reported as 1.00 (0.10) μM and the kcat stood at 0.000259 s⁻¹.

For “E. coli TGT C145V/T146V (Escherichia coli K-12; C145V/T146V)”, where the note is “other: C145V/T146V”, the Km is 0.87 (0.18) μM and the kcat was 0.00053 s⁻¹.
